Measured values from patent publication US20260158151A1.

Molecular target: RAS (endogenous RAS of human pancreatic PANC-1 cells and PANC-1 xenograft tumours, detected with a pan-RAS antibody)
Experiment: cell-based or functional assay

In the case of “RRSP protein expressed in cells from rrsp mRNA delivered by PPDP2 nanoparticles (from UniProt A0A2S3R7M0 3596-4089) (enzyme)”, the cell proliferation measured by crystal violet staining, PANC-1 cells, 1.25 µg PPDP2-rrsp is reported as > 60 % reduction and the total levels of intact RAS, western blot with pan-RAS antibody, PANC-1 cells treated with PPDP2-rrsp is reported as 40 % reduction.
